Test results from publication PMC3699834.

Substrate: N
Assay: cells, lysate or membranes
Details: NH4Cl; oocytes clamped at −120 mV; Michaelis–Menten fit

B1: AMT1;3 (Arabidopsis thaliana) (protein)
chain: MSGAITCSAADLATLLGPNATAAADYICGQLGTVNNKFTDAAFAIDNTYLLFSAYLVFAMQLGFAMLCAGSVRAKNTMNIMLTNVLDAAAGGLFYYLFGYAFAFGGSSEGFIGRHNFALRDFPTPTADYSFFLYQWAFAIAAAGITSGSIAERTQFVAYLIYSSFLTGFVYPVVSHWFWSPDGWASPFRSADDRLFSTGAIDFAGSGVVHMVGGIAGLWGALIEGPRRGRFEKGGRAIALRGHSASLVVLGTFLLWFGWYGFNPGSFTKILVPYNSGSNYGQWSGIGRTAVNTTLSGCTAALTTLFGKRLLSGHWNVTDVCNGLLGGFAAITAGCSVVEPWAAIVCGFMASVVLIGCNKLAELVQYDDPLEAAQLHGGCGAWGLIFVGLFAKEKYLNEVYGATPGRPYGLFMGGGGKLLGAQLVQILVIVGWVSATMGTLFFILKRLNLLRISEQHEMQGMDMTRHGGFAYIYHDNDDESHRVDPGSPFPRSATPPRV
  Km: 55 ± 15 µM
